Patent US20250270289

Biological target: Cav(pnY)GFP
Sequence (Q03135 whole entry): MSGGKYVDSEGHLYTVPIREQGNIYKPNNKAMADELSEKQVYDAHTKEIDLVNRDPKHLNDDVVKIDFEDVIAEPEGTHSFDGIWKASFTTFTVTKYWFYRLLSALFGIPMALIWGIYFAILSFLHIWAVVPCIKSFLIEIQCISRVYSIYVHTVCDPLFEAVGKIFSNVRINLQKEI

Protein	dephosphorylation of pnY (Western blot with phospho-caveolin antibody)	dephosphorylation of pnY, seen as loss of the phospho-caveolin antibody signal in a Western blot
calf-intestinal alkaline phosphatase (protein) LVPVEEEDPAFWNRQAAQALDVAKKLQPIQTAAKNVILFLGDGMGVPTVTATRILKGQMNGKLGPETPLAMDQFPYVALSKTYNVDRQVPDSAGTATAYLCGVKGNYRTIGVSAAARYNQCKTTRGNEVTSVMNRAKKAGKSVGVVTTTRVQHASPAGAYAHTVNRNWYSDADLPADAQMNGCQDIAAQLVNNMDIDVILGGGRKYMFPVGTPDPEYPDDASVNGVRKRKQNLVQAWQAKHQGAQYVWNRTALLQAADDSSVTHLMGLFEPADMKYNVQQDHTKDPTLQEMTEVALRVVSRNPRGFYLFVEGGRIDHGHHDDKAYMALTEAGMFDNAIAKANELTSELDTLILVTADHSHVFSFGGYTLRGTSIFGLAPSKALDSKSYTSILYGNGPGYALGGGSRPDVNDSTSEDPSYQQQAAVPQASETHGGEDVAVFARGPQAHLVHGVEEETFVAHIMAFAGCVEPYTDCNLPAPTTATSIPD	Cav(pnY)GFP was stable in buffered conditions, but dephosphorylated in a time and concentration dependent fashion	IB:pCav band present with CIP buffer alone, absent with CIP buffer + enzyme; total protein band present in both lanes
protein Tyr phosphatase 1B (protein) MEMEKEFEQIDKSGSWAAIYQDIRHEASDFPCRVAKLPKNKNRNRYRDVSPFDHSRIKLHQEDNDYINASLIKMEEAQRSYILTQGPLPNTCGHFWEMVWEQKSRGVVMLNRVMEKGSLKCAQYWPQKEEKEMIFEDTNLKLTLISEDIKSYYTVRQLELENLTTQETREILHFHYTTWPDFGVPESPASFLNFLFKVRESGSLSPEHGPVVVHCSAGIGRSGTFCLADTCLLLMDKRKDPSSVDIKKVLLEMRKFRMGLIQTADQLRFSYLAVIEGAKFIMGDSSVQDQWKELSHEDLEPPPEHIPPPPRPPKRILEPHN	Cav(pnY)GFP was stable in buffered conditions, but dephosphorylated in a time and concentration dependent fashion	IB:pCav band present with PTP1B buffer alone, absent with PTP1B buffer + enzyme; total protein band present in both lanes, faint in the enzyme lane
